Test results published in patent publication US20160017348A1.

Target: unmodified H3 peptide (UniProt P59226)
Experiment: ITC; FIG. 3A

Sequence of SHH1 SAWADEE domain (residues 125-258) (Q9XI47 125-258): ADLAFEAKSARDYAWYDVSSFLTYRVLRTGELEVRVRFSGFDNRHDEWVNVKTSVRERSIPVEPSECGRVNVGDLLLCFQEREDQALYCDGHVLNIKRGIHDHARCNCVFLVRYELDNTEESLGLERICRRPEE

Substance: SHH1 SAWADEE domain (residues 125-258) (from UniProt Q9XI47 125-258)
- Kd: 34.8 µM
